Assay [1] concerns the target T1, Human TIGIT residues 23-128 LEU65A mutant (human, UniProt Q495A1 23-128).
T1 construct: not shown: C-terminal HIS tag
T1 chain: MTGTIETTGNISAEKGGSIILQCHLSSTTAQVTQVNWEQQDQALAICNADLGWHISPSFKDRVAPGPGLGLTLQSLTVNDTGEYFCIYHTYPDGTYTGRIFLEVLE
Briefly: SPR, TIGIT alanine mutants. Background: In SPR one partner is held on a chip, and binding of the other changes the refractive index at the surface.

Assay [2] has as its target T2, Human TIGIT residues 23-128 ILE68A mutant (human, UniProt Q495A1 23-128).
T2 construct: not shown: C-terminal HIS tag
T2 chain: T1 chain with A43L, I46A
Kind of assay: SPR, TIGIT alanine mutants.

Substitutions are numbered along the chain they refer to.

B1: Tiragolumab (antibody, V domains shown)
VH: EVQLQQSGPGLVKPSQTLSLTCAISGDSVSSNSAAWNWIRQSPSRGLEWLGKTYYRFKWYSDYAVSVKGRITINPDTSKNQFSLQLNSVTPEDTAVFYCTRESTTYDLLAGPFDYWGQGTLVTVSS
VL: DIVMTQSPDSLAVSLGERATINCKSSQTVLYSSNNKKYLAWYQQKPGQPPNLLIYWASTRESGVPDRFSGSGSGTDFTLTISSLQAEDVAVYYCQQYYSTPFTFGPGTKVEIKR
On to B1, for which the “fold lower binding affinity against WT TIGIT” value is roughly 25 fold in assay [1] and roughly 40 fold in assay [2].

The record behind these values is patent EP4554620A1 (dated 2025).
